Laboratory results published in patent US20240182585A1.

Target: His-tagged human GFRAL (recombinant soluble GFRAL protein, R&D catalogue no. 9647-GR-050) (human) (UniProt Q6UXV0)
Experiment: SPR sandwich assay: row antibody captured via anti-Fc, GFRAL antigen added, then mAbQ injected as analyte (competitor: mAb Q)

Chain of His-tagged human GFRAL (recombinant soluble GFRAL protein, R&D catalogue no. 9647-GR-050) (human) (Q6UXV0 19-351): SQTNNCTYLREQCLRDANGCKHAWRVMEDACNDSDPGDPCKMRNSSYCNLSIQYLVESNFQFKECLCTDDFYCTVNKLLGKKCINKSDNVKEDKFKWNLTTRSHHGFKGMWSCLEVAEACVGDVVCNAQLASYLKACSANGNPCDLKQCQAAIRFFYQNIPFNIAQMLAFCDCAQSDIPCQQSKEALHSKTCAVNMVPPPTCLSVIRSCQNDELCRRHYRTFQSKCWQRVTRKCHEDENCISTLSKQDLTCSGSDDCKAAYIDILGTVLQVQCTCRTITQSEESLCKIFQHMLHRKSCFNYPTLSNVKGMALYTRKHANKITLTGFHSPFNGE

resonance units after mAbQ injection (resonance units): 4
Substance: IgG4PE (negative control) (antibody)
